Experimental findings from patent WO2024019110A1 (dated 2024) are described below.

The term Kd denotes a measure of binding affinity in units of concentration. A low value points to a tighter complex.

The experiment concerns the target Wuhan strain RBD (Ancestral), biotinylated (SARS-CoV-2 (Wuhan strain), UniProt P0DTC2 331-529). As to the kind of experiment: BLI (Octet), biotinylated RBD on streptavidin biosensor, Fab in solution.

B1: recombinant Fab protein of antibody No. 6 (Fab, V domains shown)
VH: QVQLVQSGPEVKKPGTSVKVSCKASGFTFYYSAVQWVRQARGQRLEWLGWMAVGSGKANYAQKFQERLTLTRDMSTSTAYMELSSLRSEDTAVYYCAAPNCTGGSCYDGFNLWGQGTVVTVSS
VL: EIVLTQSPGTLSLSPGDRAILSCRASQTVNSNYLAWYQQKPGQAPRLLIYGTSSRATGIPDRFSGSGSGTDFTLTISRLEPEDFAVYYCQQYGSSPWLFGQGTKVEIK
B1 registered a Kd of no more than 100 nM.

B2: recombinant Fab protein of antibody No. 2 (Fab, V domains shown)
VH: EVQLVESGGGVVQPGRSLRLSCAASGFKFSKFAMHWVRQAPGKGPEWVAVISYDGNQYHSADSVKGRFTISRDNSFNTLYLQMNSLGPEDTAVYYCARDGPDTSGYYANIYFDFWGQGTLVTVSS
VL: QSVLTQPPSVSGAPGQRVTISCTGSSSNIGAGYDVHWYQQLPGRAPKLLIFDNNNRPSGVPDRFSGSKSGTSASLAITGLQTEDEAYYYCQSYDNSLILAVFGGGTKVTVL
In turn, B2 gave a Kd of no more than 100 nM.

B3: recombinant Fab protein of antibody No. 7 (Fab, V domains shown)
VH: EVQLLESGGGLVQPGGSLRLSCAASGFTFSRYALSWVRQAPGKGLEWVSAISGAAITTYYADSVKGRFTISRDDSRNTLFMQMDSLRAEDTAVYYCAKGDYYDSSGYLAEYFPHWGQGTLVTVSS
VL: SYELTQPPSVSVSPGQTARITCFADALPKQHAYWYQQKAGQAPVLVIFKDTERPSGIPKRFSGSRSGATVTLTISGVQAEDEADYYCQSTDISGVLFGGGTKLTVL
With B3, the dissociation constant (Kd) was no more than 100 nM.

B4: recombinant Fab protein of antibody No. 5 (Fab, V domains shown)
VH: EVQLVESGGGLVQPGGSLRLSCAASGFTFYSYWMTWVRQAPGKGLEWVANIKHDESESHYVDSVRGRFTISRDNAKNSVYLQMKGLRAEDTAVYYCARDGGYNILTAYYHAPSYWGQGTLVTVSS
VL: QSALTQPASVSGSPGQSITISCTGTSSDVGGYNFVSWYRQYPGKAPQLMIYDVSRRPSGDSDRFSGSKSGNTASLTISGLQAEDEAEYHCSSYTGRSPYVVFGGGTKVTVL
B4: the Kd is no more than 100 nM.
